This passage reports EC50 results from patent publication US20220251233A1 (VERSEAU THERAPEUTICS, published 2022).

To fix the notation:
B1: 4N19 (antibody, V domains shown)
VH: EVQLQQSVAELVRPGASVKLSCTASGFSIKNTYMHWVKQRPEQGLEWIGRIDPANGYTQHAPKFQGKATIITDTSSNTAYLQLSSLTSEDTAIYYCAGGGPYYAMDYWGQGTSVTVSS
VL: DIVMTQAAPSVPVTPGESVSISCRSSKSLLHSNGDTYLYWFLQRPGQSPQLLIYRMSNLASGVPDRFSGSGSGTAFTLRISRVEAEDVGVYYCMQHLEYPFTFGAGTKLELK
notes: Murine anti-human CD53 mAb purified from subcloned hybridoma; detected with anti-mouse IgG
B2: 10F09 (antibody, V domains shown)
VH: EVQLQQSVAELVRPGASVKLSCTASGFNIKNTYMHWVKQRPAQGLEWIGKIDPANGFTKHAPRFQGKATITSDTSSNTAYLQLSSLTSEDTAIYYCASGWDAAFAYWGQGTLVTVSA
VL: DIVMTQAAPSVPVTPGESVSISCRSSKSLLHSNGDTYLYWFLQRPGQSPQLLIYRMSKLASGVPDRFSGSGSGTAFTLRISRVEAEDVGVYYCMQHLEHPLTFGAGTKLELK
notes: as for B1
B3: 5F16 (antibody, V domains shown)
VH: EVQLQQSGAELVRPGASVKLSCTASGFNIEDDYVHWVKQRPEQGLEWIGRIDPANGNIKYAPKFQDKATITADTSSNIAYLQLSSLTAEDTAVYYCARSGTGAMDYWGQGTSVTVSS
VL: DIVMTQAAPSVPVTPGESVSISCRSSKSLLHSNGDTYFYWFLQRPGQSPQLLIYRMSNLASGVPDRFSGSGSGTAFTLRISRVEAEDVGVYYCMQHLEFPLTFGVGTKLELK
notes: as for B1
B4: 5M13 (antibody, V domains shown)
VH: EVQLQQSVAELVRPGASVKLSCTASGFNIKNTYMHWVKQRPEQGLEWIGRLDPANGYTQSAPKFQGKATVTADTSSNTAYLHLSSLTSEDTAIYYCLYGNYYYAMAYWGQGTSVTVSS
VL: DVVMTQAAPSIPVTPGESVSISCRSSKSLLHSNGDTYLYWFLQRPGQSPQLLIYRMSNLASGVPDRFSGSGSGTAFTLRISRVEAEDVGVYYCMQHLEYPYTFGGGTKLEIK
notes: as for B1
B5: 6K14 (antibody, V domains shown)
VH: EVQLQQSGADLVRPGASVKLSCTASGFNIKDDYIHWVKQRPVQGLEWIGRIDPANGNTKYAPMFRGKATITADTSSNTAYLQLSSLTSEDTAVYYCARSGTGAMDYWGQGTSVTVSS
VL: DIVMTQAAPSVFVTPGESVSISCRSSKSLLHSNGDTYFYWFLQRPGQSPQLLIYRMSNLASGVPDRFSGSGSTTAFTLRISRVEAEDVGVYYCMQHLEFPLTFGAGTKLELK
notes: as for B1
B6: 5K03 (antibody, V domains shown)
VH: EVQLQQSVAELVRPGASVKLSCTTSGFNIKNTYMHWVKQRPEQGLEWIGRIDPANGYTECAPKFQGKATITADTSSNTAYLQLSSLTSEDTAIYYCTRSGEDYAMDYWGQGTSVTVSS
VL: DIVMTQAAPSVPVIPGESVSISCRSRKSLLHRNGDTYLYWFLQRPGQSPQVLIYRMSNLASGVPDRFSGSGSGTAFTLRISRVEAEDVGVYYCMQHLEYPYTFGGGTKLEIK
notes: as for B1
B7: 2M22 (antibody, V domains shown)
VH: EGQLQQSGSELVRPGASVKLSCTASGFNIKDDYVHWVKKRPEQGLEWIGRIDPANGYSHYVPKFHDKATITADTSSNTAYLQLNSLTSDDTAVYYCASGSGSYAMDYWGQGTSVTVSS
VL: EIVMTQAAPSVPVTPGESVSISCRSSKSLLHSNGDTYLYWFLQRPGQSPQLLIYRMSNVASGVPDRFSGSGSGTAFTLRISRVETEDVGVYYCMQHLESPYTFGGGTKLEIK
notes: as for B1
B8: 6M01 (antibody, V domains shown)
VH: EVLLQQSVADLVRPGASVKLSCTASGFNIKNTYMHWVSQRPEQGLEWIGRIDPANGYTQCAPSFQGKATITADTSSNTAYLHLSSLSSEDPAIYYCAGGSYYSAMDYWGQGTSVTVSS
VL: DIVMTQAAPSLPVTPGESVSISCRSSKSLLHSNGDTYLYWFLQRPGQSPQLLIYRMSNLASGVPDRFSGSGSGTAFTLRISRVEAEDVGVYYCMQHLEYPFTFGSGTKLEIK
notes: as for B1
B9: 1L17 (antibody, V domains shown)
VH: EVQLQQSVAELVRPGASVKLSCTASGFNIKNTYMHWVKQRPEQGLEWIARIDPANGYSQYAPKFQGKATITADTSSNTAYLQLSSLTSEDTAIFYCAGGSTYSAMDYWGQGTSVTVSS
VL: DIVMTQAAPSVPVTPGESVSISCRSSKSLLHSNGDTYLYWFLQRPGQSPQLLIYRMSNLASGVPDRFSGSGSGTAFTLRISRVEAEDVGVYYCMQHLEYPFTFGGGTKLEIK
notes: as for B1
B10: 4O24 (antibody, V domains shown)
VH: EVQLQQSVAELVRPGASVKLSCTASAFNIKNTYMHWVKQRPAQGLEWIGKIDPANGYTKYAPRFQDKATITADTSSNTAYLQLSSLTSEDTAIYYCASGRDAAFAYWGQGTQVTVSA
VL: DIVMTQAAPSVPVTPGESVSISCRSSKSLLHSNGDTYLYWFLQRPGQSPQLLIYRMSNLASGVPDRFSGSGSGTAFTLRISRVEAEDVGVYYCMQHLEHPLTFGAGTKLELK
notes: as for B1
B11: 6J17 (antibody, V domains shown)
VH: EVQLQQSGAELVRPGASVKLSCTASGFNIKDDYMHWVRQRPKQGLEWIGRVDPANGNTKYAPKFQDKATMTADTSSNTAYLRLSSLTSEDTAVYYCAGYFYYSHDGGFACWGQGTLVTVSA
VL: DIVMTQGSPSIPVTPGESVSISCRSSKSLLHRNGNIYLYWFLQRPGQSPQRLIYYMSNLASGVPDRFSGRGSGTDFTLRISRVEAEDVGVYYCMQGLEYPFTFGTGTKLEIK
notes: as for B1
B12: 10J06 (antibody, V domains shown)
VH: QVQLQQPGAELVKPGASVKLSCKASGYTFTSYWMHWVKQRPGQGLEWIGMIHPNSGSSNHNGKFRGKATLTVDKSSSTAYIQLSSLTSEDSAVYYCARDDYAETMDYWGQGTSVTVSS
VL: DVVMTQTPLSLSITIGQPASISCKSSQSLLYSDGKTYLNWFQQRPGQSPKRLMYQVSKLDPGIPDRFSGSGSETDFTLKISRVEAEDLGVYYCLQGTYYPWTFGGGTKLEIK
notes: as for B1
B13: 3A21 (antibody, V domains shown)
VH: EVQLQQSGAELVRPGASVKLSCTASGFNIKDDYMHWVKQRPEQGLEWIGLIDPENGYAEYASKFQGKATITADTSSNTANLQLNSLTSEDTAVYYCTTWGLLRNYVMDYWGQGTSVTVSS
VL: DIVMTQAAFSNPVTLGTSASISCSSSKSLLHSNGITYLYWYLQRPGQSPQLLIYRMSNLASGVPDRFSGSGSGTDFTLRVNRVEADDVGVYYCAQMLERPRTFGGGTKLEIK
notes: as for B1
B14: 4B19 (antibody, V domains shown)
VH: QVQLQQSGTELMKPGASVKLSCKATGYTFTGYWIEWVKQRPGHGLEWIGEILPGSYSTNYNEKFKGKATFTADSSSNTAYMQLSSLTTEDSAIYYCTRDSNYEWFDVWGTGTTVTVSS
VL: DVVMTQTPLSLSVTIGQPASISCKSSQSLLHRDGETYLNWLLQRPGQSPKLLIYLVSKLESGIPDRFSGSGSGTDFTLKISRVEVEDLGVYYCLQHTHFPYTFGSGTKLEIK
notes: as for B1
B15: 10N22 (antibody, V domains shown)
VH: EVQLQQSGPELVKPGASVKISCKASGYTFTGYFMNWVKQSHGKSLEWIGDLNPNNGGTNFNQRFKGKATLTVDKSSSTAYMELRSLTSEDSAVYYCARDGYDGGYAMDYWGQGTSVTVSS
VL: DVLMTQTPLSLPVSLGDQASISCRSSQNIVHSSGNTYLEWYLQKPGQSPKLLIFKVSNRFSGVPDRFSGSGSGTDFTLKISRVEAEDLGVYYCFQGSHVPYTFGGGTKLEIK
notes: as for B1

The assay deals with T1, Human CD53-CHO (full-length human CD53 over-expressed on CHO-K1 cells) (human, UniProt P19397 1-219).
T1 construct: Tetraspanin cell-surface antigen
T1 sequence: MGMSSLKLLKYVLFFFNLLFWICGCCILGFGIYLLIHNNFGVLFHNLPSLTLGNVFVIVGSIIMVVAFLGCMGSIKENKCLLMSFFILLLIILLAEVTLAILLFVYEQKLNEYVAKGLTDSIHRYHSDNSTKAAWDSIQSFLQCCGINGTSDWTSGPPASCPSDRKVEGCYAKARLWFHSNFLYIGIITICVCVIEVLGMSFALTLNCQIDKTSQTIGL
Briefly: flow cytometry on CD53-CHO cells, anti-mouse IgG AF647 gMFI, 4-parameter fit. Here is the method:
Binding of anti-human CD53 antibodies was determined by flow cytometry for their ability to bind human CD53-CHO cells compared to parental CHO-K1 cells. All assay steps were performed in FACS buffer (phosphate buffered saline pH 7.4 supplemented with 2% fetal bovine serum). Twenty thousand cells were seeded in 384-well plates and washed twice with ice cold buffer. Cells were incubated with purified antibodies titrated 3-fold from 200 nM to 0.09 nM at 4° C. for 1 hour with gentle agitation, then washed twice with FACS buffer and incubated with anti-mouse IgG Alexa Fluor® 647 and incubated at 4° C. for 40 minutes. Cells were washed twice and resuspended in FACS buffer. Analysis was preformed on the IntelliCyt® iQue Screener and gMFI values for Alexa Fluor® 647 were generated. EC50 values were determined in GraphPad Prism8. Concentration was transformed from nM to Log 10 nM and curves were fit with a nonlinear regression of log(agonist) vs. response−Variable slope (four parameters) or Y=Bottom+(Top−Bottom)/(1+10\hat{ }((LogEC50−X)*HillSlope)). EC50 values for all anti-human CD53 antibodies can be found in Table 6, and representative binding curves can be found in FIG. 7. Binding to CD53-CHO is represented by closed symbols and binding to parental CHO-K1 cells is represented by open symbols.
Usually EC50 stands for the midpoint of the concentration-response curve. As to B1, a half-maximal response (EC50) required 2.5 nM.

In turn, B2 gave an EC50 of 25.4 nM.

In turn, B3 came in with an EC50 of around 3 nM.

On to B4, for which the EC50 came out at 11.1 nM.

As to B5, the EC50 was around 3 nM.

B6 showed a 50% effective concentration (EC50) of around 2 nM.

Molecule B7 displayed an EC50 of around 0.3 nM.

Consider B8, for which the EC50 was around 2 nM.

Molecule B9 had an EC50 of around 2 nM.

On to B10, for which the EC50 turned out to be 8.1 nM.

For the molecule B11, the EC50 was around 23 nM.

B12 yielded an EC50 of 82.5 nM.

As for B13, the EC50 is 2.1 nM.

Consider B14, for which the EC50 stood at 36 nM.

The molecule B15 showed an EC50 of around 8 nM.
